Biological target: T1, Human CD137 ECD (human)
T1 construct: entry includes C-terminal His-tag and biotin acceptor peptide; also called human CD137 extracellular domain; 4-1BB
Assay: Biacore SPR, vs parent H183/L072

T1 sequence (chain, as listed by the source limits assumed): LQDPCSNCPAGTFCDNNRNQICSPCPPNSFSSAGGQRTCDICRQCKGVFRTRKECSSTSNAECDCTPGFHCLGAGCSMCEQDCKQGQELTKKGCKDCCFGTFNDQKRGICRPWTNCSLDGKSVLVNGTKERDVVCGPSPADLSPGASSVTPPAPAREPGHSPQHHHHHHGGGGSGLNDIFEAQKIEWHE

Row | Binder | fold change of affinity
1 | H183/L072 VL F96W (antibody, name in Kabat numbering, V domains shown, Dual-Ig) VH: QVQLVESGGGLVQPGRSLRLSCAASGFTFSNAWMHWVRQAPGKGLEWVAQIKDKGNAYAAYYAPSVKGRFTISRDDSKNSIYLQMNSLKTEDTAVYYCHYVHYASASTVLPAFGVDAWGQGTTVTVSS VL: DIVMTQSPLSLPVTPGEPASISCQASQELVHMNRNTYLHWYQQKPGQAPRLLIYKVSNRFPGVPDRFSGSGSGTDFTLKISRVEAEDVGVYYCAQGTSVPWTFGQGTKLEIK | 0 fold
2 | H183/L072 VL G91F (antibody, name in Kabat numbering, V domains shown, Dual-Ig) VH: QVQLVESGGGLVQPGRSLRLSCAASGFTFSNAWMHWVRQAPGKGLEWVAQIKDKGNAYAAYYAPSVKGRFTISRDDSKNSIYLQMNSLKTEDTAVYYCHYVHYASASTVLPAFGVDAWGQGTTVTVSS VL: DIVMTQSPLSLPVTPGEPASISCQASQELVHMNRNTYLHWYQQKPGQAPRLLIYKVSNRFPGVPDRFSGSGSGTDFTLKISRVEAEDVGVYYCAQFTSVPFTFGQGTKLEIK | 0 fold
3 | H183/L072 VL G91A (antibody, name in Kabat numbering, V domains shown, Dual-Ig) VH: QVQLVESGGGLVQPGRSLRLSCAASGFTFSNAWMHWVRQAPGKGLEWVAQIKDKGNAYAAYYAPSVKGRFTISRDDSKNSIYLQMNSLKTEDTAVYYCHYVHYASASTVLPAFGVDAWGQGTTVTVSS VL: DIVMTQSPLSLPVTPGEPASISCQASQELVHMNRNTYLHWYQQKPGQAPRLLIYKVSNRFPGVPDRFSGSGSGTDFTLKISRVEAEDVGVYYCAQATSVPFTFGQGTKLEIK | 0.4 fold
4 | H183/L072 VL G91D (antibody, name in Kabat numbering, V domains shown, Dual-Ig) VH: QVQLVESGGGLVQPGRSLRLSCAASGFTFSNAWMHWVRQAPGKGLEWVAQIKDKGNAYAAYYAPSVKGRFTISRDDSKNSIYLQMNSLKTEDTAVYYCHYVHYASASTVLPAFGVDAWGQGTTVTVSS VL: DIVMTQSPLSLPVTPGEPASISCQASQELVHMNRNTYLHWYQQKPGQAPRLLIYKVSNRFPGVPDRFSGSGSGTDFTLKISRVEAEDVGVYYCAQDTSVPFTFGQGTKLEIK | 0 fold
5 | H183/L072 VL G91E (antibody, name in Kabat numbering, V domains shown, Dual-Ig) VH: QVQLVESGGGLVQPGRSLRLSCAASGFTFSNAWMHWVRQAPGKGLEWVAQIKDKGNAYAAYYAPSVKGRFTISRDDSKNSIYLQMNSLKTEDTAVYYCHYVHYASASTVLPAFGVDAWGQGTTVTVSS VL: DIVMTQSPLSLPVTPGEPASISCQASQELVHMNRNTYLHWYQQKPGQAPRLLIYKVSNRFPGVPDRFSGSGSGTDFTLKISRVEAEDVGVYYCAQETSVPFTFGQGTKLEIK | 0 fold
6 | H183/L072 VL G91H (antibody, name in Kabat numbering, V domains shown, Dual-Ig) VH: QVQLVESGGGLVQPGRSLRLSCAASGFTFSNAWMHWVRQAPGKGLEWVAQIKDKGNAYAAYYAPSVKGRFTISRDDSKNSIYLQMNSLKTEDTAVYYCHYVHYASASTVLPAFGVDAWGQGTTVTVSS VL: DIVMTQSPLSLPVTPGEPASISCQASQELVHMNRNTYLHWYQQKPGQAPRLLIYKVSNRFPGVPDRFSGSGSGTDFTLKISRVEAEDVGVYYCAQHTSVPFTFGQGTKLEIK | 0 fold

The next lines start with the values.

Row | fold change of affinity | Binder
7 | 0 fold | H183/L072 VL G91I (antibody, name in Kabat numbering, V domains shown, Dual-Ig) VH: QVQLVESGGGLVQPGRSLRLSCAASGFTFSNAWMHWVRQAPGKGLEWVAQIKDKGNAYAAYYAPSVKGRFTISRDDSKNSIYLQMNSLKTEDTAVYYCHYVHYASASTVLPAFGVDAWGQGTTVTVSS VL: DIVMTQSPLSLPVTPGEPASISCQASQELVHMNRNTYLHWYQQKPGQAPRLLIYKVSNRFPGVPDRFSGSGSGTDFTLKISRVEAEDVGVYYCAQITSVPFTFGQGTKLEIK
8 | 0 fold | H183/L072 VL G91K (antibody, name in Kabat numbering, V domains shown, Dual-Ig) VH: QVQLVESGGGLVQPGRSLRLSCAASGFTFSNAWMHWVRQAPGKGLEWVAQIKDKGNAYAAYYAPSVKGRFTISRDDSKNSIYLQMNSLKTEDTAVYYCHYVHYASASTVLPAFGVDAWGQGTTVTVSS VL: DIVMTQSPLSLPVTPGEPASISCQASQELVHMNRNTYLHWYQQKPGQAPRLLIYKVSNRFPGVPDRFSGSGSGTDFTLKISRVEAEDVGVYYCAQKTSVPFTFGQGTKLEIK

Source: US20210388087A1 (Chugai, published 2021)
